Assay results from PMC4687643, “SH3 Domains Differentially Stimulate Distinct Dynamin I Assembly Modes and G Domain Activity” (PLoS ONE, 2015).

Key:
Assay in all cases: cell-based or functional assay
[1] = biological target: T1, GST-amphiphysin I SH3 domain (human, UniProt P49418 622-695)
T1 sequence (looked up): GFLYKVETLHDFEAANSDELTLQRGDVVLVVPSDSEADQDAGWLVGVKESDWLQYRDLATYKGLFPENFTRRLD

[2] = biological target: T2, GST-Formin Binding Protein 17 (FBP17) SH3 domain (human, UniProt Q96RU3 550-611)
T2 sequence (looked up): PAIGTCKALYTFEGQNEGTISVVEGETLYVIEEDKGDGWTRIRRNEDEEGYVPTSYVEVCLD

[3] = biological target: T3, GST-Cdc42 interacting protein 4 (CIP4) SH3 domain (human, UniProt Q15642 540-601)
T3 sequence (looked up): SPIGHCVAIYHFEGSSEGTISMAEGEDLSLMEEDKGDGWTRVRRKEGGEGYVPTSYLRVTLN

[4] = biological target: T4, GST-Actin binding protein 1 (Abp1) SH3 domain (mouse, UniProt Q62418 377-436)
T4 sequence (Q62418 377-436): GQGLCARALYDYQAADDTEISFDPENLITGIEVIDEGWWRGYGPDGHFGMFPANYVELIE

GST-cortactin SH3 domain [5] = biological target: T5, GST-cortactin SH3 domain (mouse, UniProt Q60598 488-546)
T5 sequence (Q60598 488-546): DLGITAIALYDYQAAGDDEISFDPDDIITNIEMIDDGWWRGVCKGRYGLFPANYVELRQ

[6] = biological target: T6, GST-amphiphysin II SH3 domain (human, UniProt O00499 520-593)
T6 sequence (looked up): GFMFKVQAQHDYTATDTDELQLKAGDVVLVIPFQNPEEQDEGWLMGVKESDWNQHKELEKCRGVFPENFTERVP

[7] = biological target: T7, GST-endophilin I SH3 domain (mouse, UniProt Q62420 290-349)
T7 sequence (Q62420 290-349): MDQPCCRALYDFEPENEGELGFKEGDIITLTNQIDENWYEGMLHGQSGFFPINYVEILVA

[8] = biological target: GST-intersectin I SH3A domain (Xenopus laevis)
[9] = biological target: GST-intersectin I SH3C domain (Xenopus laevis)
[10] = biological target: GST-intersectin I SH3E domain (Xenopus laevis)
[11] = biological target: T8, GST-syndapin I SH3 domain (mouse, UniProt Q61644 382-441)
T8 sequence (Q61644 382-441): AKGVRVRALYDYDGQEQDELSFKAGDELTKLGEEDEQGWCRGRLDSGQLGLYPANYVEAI

[12] = biological target: T9, GST-sorting-nexin 9 (SNX9) SH3 domain (human, UniProt Q9Y5X1 1-62)
T9 sequence (Q9Y5X1 1-62): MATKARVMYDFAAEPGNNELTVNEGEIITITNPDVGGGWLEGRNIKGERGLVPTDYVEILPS

GST-p85 SH3 domain [13] = biological target: T10, GST-p85 SH3 domain (bovine, UniProt P23727 3-79)
[14] = biological target: T1, GST-amphiphysin I SH3 domain; remark: listed apart in the source
[15] = biological target: T2, GST-Formin Binding Protein 17 (FBP17) …; remark: listed apart in the source
[16] = biological target: T3, GST-Cdc42 interacting protein 4 (CIP4) …; remark: listed apart in the source
[17] = biological target: T4, GST-Actin binding protein 1 (Abp1) SH3 …; remark: listed apart in the source
GST-cortactin SH3 domain [18] = biological target: T5, GST-cortactin SH3 domain; remark: listed apart in the source
[19] = biological target: T6, GST-amphiphysin II SH3 domain; remark: listed apart in the source
[20] = biological target: T7, GST-endophilin I SH3 domain; remark: listed apart in the source
[21] = biological target: GST-intersectin I SH3A domain (Xenopus laevis); remark: listed apart in the source
[22] = biological target: GST-intersectin I SH3C domain (Xenopus laevis); remark: listed apart in the source
[23] = biological target: GST-intersectin I SH3E domain (Xenopus laevis); remark: listed apart in the source
[24] = biological target: T8, GST-syndapin I SH3 domain; remark: listed apart in the source
[25] = biological target: T9, GST-sorting-nexin 9 (SNX9) SH3 domain; remark: listed apart in the source
GST-p85 SH3 domain [26] = biological target: T10, GST-p85 SH3 domain; remark: listed apart in the source

B1: endogenous sheep brain dynamin I (enzyme)
chain: MGNRGMEDLIPLVNRLQDAFSAIGQNADLDLPQIAVVGGQSAGKSSVLENFVGRDFLPRGSGIVTRRPLVLQLVNATTEYAEFLHCKGKKFTDFEEVRLEIEAETDRVTGTNKGISPVPINLRVYSPHVLNLTLVDLPGMTKVPVGDQPPDIEFQIRDMLMQFVTKENCLILAVSPANSDLANSDALKVAKEVDPQGQRTIGVITKLDLMDEGTDARDVLENKLLPLRRGYIGVVNRSQKDIDGKKDITAALAAERKFFLSHPSYRHLADRMGTPYLQKVLNQQLTNHIRDTLPGLRNKLQSQLLSIEKEVEEYKNFRPDDPARKTKALLQMVQQFAVDFEKRIEGSGDQIDTYELSGGARINRIFHERFPFELVKMEFDEKELRREISYAIKNIHGIRTGLFTPDLAFEATVKKQVQKLKEPSIKCVDMVVSELTATIRKCSEKLQQYPRLREEMERIVTTHIREREGRTKEQVMLLIDIELAYMNTNHEDFIGFANAQQRSNQMNKKKASGNQDEILVIRKGWLTINNIGIMKGGSKEYWFVLTAENLSWYKDDEEKEKKYMLSVDNLKLRDVEKGFMSSKHIFALFNTEQRNVYKDYRQLELACETQEEVDSWKASFLRAGVYPERVGDKEKASETEENGSDSFMHSMDPQLERQVETIRNLVDSYMAIVNKTVRDLMPKTIMHLMINNTKEFIFSELLANLYSCGDQNTLMEESAEQAQRRDEMLRMYHALKEALSIIGDINTTTVSTPMPPPVDDSWLQVQSVPTGRRSPTSSPTPQRRAPAVPPARPGSRGPAPGPPPAGSALGGAPPVPSRPGASPDPFGPPPQVPSRPNRAPPGVPSRSGQASPSRPESPRPPFDL
B1 was tested, and the “dynamin GTPase activity stimulated by the GST-SH3 domain (ELIPA, 30 mM NaCl), fold change relative to no SH3” value [1] was 5.32 fold change, the “dynamin GTPase activity stimulated by the GST-SH3 domain (ELIPA, 30 mM NaCl), fold change relative to no SH3” value [2] was 3.97 fold change and the “dynamin GTPase activity stimulated by the GST-SH3 domain (ELIPA, 30 mM NaCl), fold change relative to no SH3” value [3] was 0.83 fold change. The “dynamin GTPase activity stimulated by the GST-SH3 domain (ELIPA, 30 mM NaCl), fold change relative to no SH3” value [4] was 1.03 fold change, the “dynamin GTPase activity stimulated by the GST-SH3 domain (ELIPA, 30 mM NaCl), fold change relative to no SH3” value (GST-cortactin SH3 domain [5]) was 5.49 fold change and the “dynamin GTPase activity stimulated by the GST-SH3 domain (ELIPA, 30 mM NaCl), fold change relative to no SH3” value [6] was 1.09 fold change. For the same binder, the “dynamin GTPase activity stimulated by the GST-SH3 domain (ELIPA, 30 mM NaCl), fold change relative to no SH3” value [7] was 2.82 fold change, the “dynamin GTPase activity stimulated by the GST-SH3 domain (ELIPA, 30 mM NaCl), fold change relative to no SH3” value [8] was 14.7 fold change and the “dynamin GTPase activity stimulated by the GST-SH3 domain (ELIPA, 30 mM NaCl), fold change relative to no SH3” value [9] was 2.1 fold change. The “dynamin GTPase activity stimulated by the GST-SH3 domain (ELIPA, 30 mM NaCl), fold change relative to no SH3” value [10] was 1.83 fold change, the “dynamin GTPase activity stimulated by the GST-SH3 domain (ELIPA, 30 mM NaCl), fold change relative to no SH3” value [11] was 5.9 fold change and the “dynamin GTPase activity stimulated by the GST-SH3 domain (ELIPA, 30 mM NaCl), fold change relative to no SH3” value [12] was 5.12 fold change. For the same binder, the “dynamin GTPase activity stimulated by the GST-SH3 domain (ELIPA, 30 mM NaCl), fold change relative to no SH3” value (GST-p85 SH3 domain [13]) was 2.24 fold change, the “rate of dynamin GTPase activity stimulated by the GST-SH3 domain (ELIPA, 30 mM NaCl, basal rate subtracted)” value (“rate” for short) [14] was 0.029 μmoles Pi/mg of dyn/min and the “rate” value [15] was 0.016 μmoles Pi/mg of dyn/min. For the same binder, the “rate” value [16] was 0 μmoles Pi/mg of dyn/min, the “rate” value [17] was 0 μmoles Pi/mg of dyn/min and the “rate” value (GST-cortactin SH3 domain [18]) was 0.031 μmoles Pi/mg of dyn/min. For the same binder, the “rate” value [19] was 0.001 μmoles Pi/mg of dyn/min, the “rate” value [20] was 0.012 μmoles Pi/mg of dyn/min and the “rate” value [21] was 0.101 μmoles Pi/mg of dyn/min. For the same binder, the “rate” value [22] was 0.008 μmoles Pi/mg of dyn/min, the “rate” value [23] was 0.005 μmoles Pi/mg of dyn/min and the “rate” value [24] was 0.033 μmoles Pi/mg of dyn/min. The “rate” value [25] was 0.027 μmoles Pi/mg of dyn/min and the “rate” value (GST-p85 SH3 domain [26]) was 0.009 μmoles Pi/mg of dyn/min.
